Experimental data as given in patent US12466859B2, “Desmoglein 2 (DSG2) binding proteins and uses therefor” (UNIVERSITY OF WASHINGTON THROUGH ITS CENTER FOR …, priority 2013, dated 2025).
“Also recorded” adds a separate entry of the source.

B1: D261N (protein)
chain: MKVSALKEKVSALKEKVSALKEKVSALKEKVSALKEGSGGGSGGGSGGGSNSIALKNNTLWTGPKPEANCIIEYGKQNPDSKLTLILVKNGGIVNGYVTLMGASDYVNTLFKNKNVSINVELYFDATGHILPDSSSLKTDLELKYKQTADFSARGFMPSTTAYPFVLPNAGTHNENYIFGQCYYKASNGALFPLEVTVMLNKRLPDSRTSYVMTFLWSLNAGLAPETTQATLITSPFTFSYIREDD
B2: JO-4 (protein)
chain: MKVSALKEKVSALKEKVSALKEKVSALKEKVSALKEGSGGGSGGGSGGGSNSIALKNNTLWTGPKPEANCIIEYGKQNPDSKLTLILVKNGGIVNGYVTLMGASDYVNTLFKNKNVSINVELYFDATGHILPDSSSLKTDLELKYKQTADFSARGFMPSTTAYPFVLPNAGTHNENFIFGQCYYKASDGALFPLEVTVMLNKRLPDSRTSYVMTFLWSLNAGLAPETTQATLITSPFTFSYIREDD
B3: JO-1: dimeric protein that contains the wild-type Ad3 fiber knob and a self-dimerization domain (SEQ ID NO:27) (protein, listed as Homo sapiens)
chain: MKVSALKEKVSALKEKVSALKEKVSALKEKVSALKEGSGGGSGGGSGGGSNSIALKNNTLWTGPKPEANCIIEYGKQNPDSKLTLILVKNGGIVNGYVTLMGASDYVNTLFKNKNVSINVELYFDATGHILPDSSSLKTDLELKYKQTADFSARGFMPSTTAYPFVLPNAGTHNENYIFGQCYYKASDGALFPLEVTVMLNKRLPDSRTSYVMTFLWSLNAGLAPETTQATLITSPFTFSYIREDD
modifications: dimer

Key:
[1] = system: polarized colon cancer T84 cells; experiment: Transepithelial electrical resistance (TEER) on polarized T84 cells; format: cell-based; settings: for Effect on the TEER: added for 1 hour to the apical side of transwell cultures
Protocol: FIG. 5A-5B. Correlation of reduced DSG2 binding with the ability to open epithelial junctions. FIG. 5A) Transepithelial electrical resistance (TEER) measured on polarized colon cancer T84 cells. Cells were cultured in transwell chambers until the TEER was constant, i.e. tight junctions had formed. A total of 5 μg of dimeric Ad3 fiber knobs in PBS was then added for 1 hour to the apical chamber. TEER was measured at the indicated time points. N=6. For time points 1.5 and 4 hours the difference between JO-1 vs D261N and N186D was significant (p<0.01). The arrows indicate the addition and removal of Ad3 fiber knobs. FIG. 5B) Enhancement of irinotecan therapy. A total of 4×10^6 A549 cells were injected subcutaneously into CB17-SCID/beige mice. Once the tumor reached a volume of ˜100 mm^3 (day 15 after implantation), the mice were injected intravenously with 2 mg/kg JO-1, E299V, N186D, or PBS, followed by an intravenous injection of irinotecan (37.5 mg/kg) one hour later. The treatment was repeated on day 25. N=5. […] The difference between “irinotecan” vs “JO-1+irinotecan” was significant (p<0.01) from day 20 on.
FIG. 9A1-9C. Analysis of dimeric Ad3 fiber knob mutants with increased affinity to DSG2. FIG. 9A1-9A2) Competition of Ad3-GFP virus infection on HeLa cells with dimeric affinity-enhanced mutant Y250F and JO-1 (dimeric wt Ad3 fiber knob). The experimental setting is as described for FIG. 3C. FIG. 9A1) percentage of GFP positive cells. FIG. 9A2) mean fluorescence intensity. N=3. The standard deviation was less than 10%. FIG. 9B1-9B2) Competition of Ad3-GFP virus infection on HeLa cells by Ad3 knob mutants with enhanced DSG2 binding but without dimerization domain. 1.5×10^5 HeLa cells were seeded into 24 well plates. Cells were incubated with the Ad3 knob mutants at the increasing concentrations for one hour at room temperature. 100 pfu/cell of Ad3GFP virus were then added and GFP expression was analyzed 18 hours later. FIG. 9B1) % of GFP+cells; FIG. 9B2) MFI. FIG. 9C) TEER on colon cancer T84 cells. The experimental setting was the same as for FIG. 5A. The TEER at 4 hours is shown. N=3.
Permeability assay. A total of 5×10^5 T84 cells were seeded in 12 mm transwell inserts (PET membrane, with 0.4 μm pore size (Corning, NY) and cultured for >14 days until transepithelial electrical resistance (TEER) was stable. Culture medium was changed every 2-3 days. The cells were exposed to DSG2 ligands (20 μg/ml) in adhesion medium (DMEM, 1% FBS, 2 mM MgCl2, 20 mM HEPES) for 15 min at room temperature and TEER was measured and calculated as described elsewhere (39).

[2] = Serum clearance of JO-1 and JO-4 by ELISA; format: in vivo, hDSG2 transgenic mice; settings: 2 mg/kg i.v.; mice with TC1-hDSG2 tumors
Protocol: (§1) FIG. 11A-11C. Pharmacokinetics, toxicity, and immunogenicity of JO-4. FIG. 11A) Serum clearance of JO-1 and JO-4. hDSG2 transgenic mice with subcutaneous TC1-hDSG2 tumors (˜600 mm^3) were intravenously injected with JO-1 or JO-4 (2 mg/kg) and serum samples were analyzed for by ELISA. N=3. Note that the y-axis has a log scale. FIG. 11B1) Lymphocyte and FIG. 11B2) platelet counts in hDSG2/TC1-hDSG2 transgenic mice after JO-1 or JO-4 injection. N=3. FIG. 11C) Therapy studies in immunocompetent hDSG2 transgenic mice with TC1-hDSG2 tumors. When tumors reached a volume of ˜80 mm^3, JO-1 or JO-4 (2 mg/kg) or PBS was injected intravenously followed one hour later by PLD/Doxil (i.v. 1.5 mg/kg). Treatment was repeated as indicated by arrows. Tumors were then allowed to re-grow for about two weeks. From day 15 on serum anti-JO-1/J)—4 antibodies were detectable by ELISA. Two more treatment cycles were performed at day 28 and day 35. […] The difference between JO-1/PLD vs JO-4/PLD is significant from day 31 on. N=10.
Two of the affinity enhanced version of JO-1, Y293D and V250F were analyzed in in vivo assay. We called these mutants JO-2 and JO-4, respectively. The first study was performed in a xenograft model derived from A549 cells similar to the study described for FIG. 5B. […] We also analyzed hematological parameters after i.v. JO-1 and JO-4 injection.

[3] = Blood chemistry and blood cell counts after i.v. injection; format: in vivo, hDSG2 transgenic mice; settings: for Blood chemistry / Lymphocyte and platelet number after injection: after i.v. injection, 2 mg/kg
Protocol: as §1
Two of the affinity enhanced version of JO-1, Y293D and V250F were analyzed in in vivo assay. We called these mutants JO-2 and JO-4, respectively. The first study was performed in a xenograft model derived from A549 cells similar to the study described for FIG. 5B. […] Additional studies were performed in xenograft tumors derived from ovc316 cells (30, 32). Ovc316 cells are Her2/neu positive epithelial tumor cells derived from an ovarian cancer biopsy. These cells can undergo EMT and the reverse process, mesenchymal-to-epithelial-transition (MET), under specific conditions in vitro and in vivo. A subfraction of ovc316 cells that is positive for Nanog, CD133, and E-cadherin is enriched for cancer stem cells, i.e. self-renewing cells with pluripotent potential and tumor forming ability (30). Ovc316 cells therefore closely model the heterogeneity and plasticity seen in tumors in situ. […] Finally, we tested JO-4 in a model for triple-negative breast cancer (TNBC). TNBC is characterized by a lack or minimal expression of estrogen receptor (ER), progesterone receptor (PR) and the absence of Her2/neu overexpression. TNBC accounts for 15% of all breast cancers. Overall survival is poor compared with that in patients who have other phenotypes. A characteristic feature of TNBC is high levels of DSG2 and epithelial junctions. Promising clinical results in the treatment of TNBS have been achieved with nanoparticle, albumin-conjugated paclitaxel (nab-paclitaxel/Abraxane™) alone or in combination with the EGFR-targeting mAb cetuximab/Erbitux™ (38). […] Because of its therapeutic relevance, we further studied JO-4 in an adequate mouse tumor model. […] These mice were subcutaneously implanted with syngeneic TC1-hDSG tumors. When tumors reached a volume of ˜600 mm^3, JO-1 or JO-4 was intravenously injected for safety and efficacy studies. […] After one hour post-injection JO-1 and JO-4 concentration reached a plateau with −100 ng/ml. We also analyzed hematological parameters after i.v. JO-1 and JO-4 injection.

Molecule	Effect on the TEER [1]	TEER compared to JO-1 ([1]; dimeric affinity-enhanced mutants, TEER at 4 hours)	Decline of serum concentration within an hour after injection [2]	Lymphocyte and platelet counts at nadir compared with JO-1 ([3]; 24 hours p.i., p<0.01)	Blood chemistry [3]	Lymphocyte and platelet number after injection [3]	Return of lymphocyte and platelet counts to normal levels ([3]; compared with JO-1 treated animals)
B1	no effect	–	–	–	–	–	–
B2	–	significantly higher	declined more than one order of magnitude; also recorded: significantly greater; also recorded: rapidly decrease	significantly lower numbers	did not show abnormal changes	decreased early after injection; also recorded: transient reduction	faster
B3	rapid decrease in the TEER	–	declined more than one order of magnitude	–	did not show abnormal changes	decreased early after injection	–
